Experimental data published in patent US20030228663A1.

Target: HER2 extracellular domain (HER2-ECD) (human) (UniProt P04626)
Assay: SPR (BIAcore 2000 or 3000), Fab over immobilized HER2-ECD, 37 °C, KD = koff/kon

Kd: 0.38 nM
Substance: hu4D5-8 Fab M.7 (N30(VL)S+H91(VL)F+Y92(VL)W+T94(VL)S+D98(VH)W+Y100a(VH)F+Y102(VH)V)
